Source: publication PMC3634753, “A Study of the Mechanism of the Chaperone-like Function of an scFv of Human Creatine Kinase by Computer Simulation” (PLoS ONE, 2013)

Columns and labels:
Experiment in all cases: peptide or protein array; 12-mer HCK peptides, each shifted by one residue, synthesized as spots on nitrocellulose membrane; incubated with purified scFv-A4 in MP buffer (30 mM Tris-HCl, pH 7.6, 170 mM NaCl, 6.4 mM KCl, 0.05% Tween 20, 5% sucrose) overnight at 4°C; bound scFv electro-transferred onto PVDF and detected with anti-V5 antibody
Conditions in all cases: both partners purified
[1] = target: T1, HCK peptide segment Ser129-Lys138 (Homo sapiens, UniProt P06732)
T1 construct: human creatine kinase (HCK), segment Ser129-Lys138 covered by the positive 12-mer spots E3-E13; Each spot held a 12-mer shifted by one residue; also called spots E3-E13; source: synthetic peptide, synthesized on nitrocellulose membrane as spots
T1 chain: SRVRTGRSIK

[2] = target: T2, HCK peptide segment Thr313-Thr322 (Homo sapiens, UniProt P06732)
T2 construct: human creatine kinase (HCK), segment Thr313-Thr322 covered by the positive 12-mer spots K5-K14; Each spot held a 12-mer shifted by one residue; also called spots K5-K14; source: synthetic peptide, synthesized on nitrocellulose membrane as spots
T2 chain: TRLRLQKRGT

[3] = target: T3, HCK peptide segment Glu248-Leu257 (Homo sapiens, UniProt P06732)
T3 construct: human creatine kinase (HCK), segment Glu248-Leu257 covered by the positive 12-mer spots I3-I12; Each spot held a 12-mer shifted by one residue; also called spots I3-I12; source: synthetic peptide, synthesized on nitrocellulose membrane as spots
T3 chain: EVFRRFCVGL

[4] = target: T4, HCK peptide segment Lys265-Asn274 (Homo sapiens, UniProt P06732)
T4 construct: human creatine kinase (HCK), segment Lys265-Asn274 covered by the positive 12-mer spots I22-I29; Each spot held a 12-mer shifted by one residue; also called spots I22-I29; source: synthetic peptide, synthesized on nitrocellulose membrane as spots
T4 chain: KKAGHPFMWN

[5] = target: T5, HCK peptide segment Lys170-Met179 (Homo sapiens, UniProt P06732)
T5 construct: human creatine kinase (HCK), segment Lys170-Met179 covered by the positive 12-mer spots F17-F21; Each spot held a 12-mer shifted by one residue; also called spots F17-F21; source: synthetic peptide, synthesized on nitrocellulose membrane as spots
T5 chain: KGKYYPLKSM

[6] = target: T6, HCK peptide segment Asn5-Tyr14 (Homo sapiens, UniProt P06732)
T6 construct: human creatine kinase (HCK), segment Asn5-Tyr14 covered by the positive 12-mer spots A2-A6; Each spot held a 12-mer shifted by one residue; also called spots A2-A6; source: synthetic peptide, synthesized on nitrocellulose membrane as spots
T6 chain: NTHNKFKLNY

Measured: binding result

B1: scFv-A4 (scFv, V domains shown)
VH: QVQLVQSGAEVKKPGSSVRVSCKASGGTFSSYAISWVRQAPGQGPEWMGGIIPIFGTANYAQKFQGRVTITADESTSTAYMELSSLRSEDTAVYYCAGSSGWSMSAFDIWGQGTMVTVSS
VL: SSELTQPPSVSVAPGKTARITCGGNNIGSKSVHWYQQKPGQAPVLVIYYDSDRPSGIPERFSGSNSGNTATLTISRVEAGDEADYYCQVWDSSSDHVVFGGGTKLTVL
notes: linker segment GLY112-LYS142; without the linker, the light chain is 100% and the heavy chain 93% identical to the Fab of PDB 2DD8; also called anti-human creatine kinase single chain antibody
binds: all assays above
